Source: patent US20230038638A1, “COMPLEMENT FACTOR I-RELATED COMPOSITIONS AND METHODS” (published 2023)

Legend:
[1] = molecular target: T1, human C4b (human) (UniProt P0C0L4)
T1 sequence: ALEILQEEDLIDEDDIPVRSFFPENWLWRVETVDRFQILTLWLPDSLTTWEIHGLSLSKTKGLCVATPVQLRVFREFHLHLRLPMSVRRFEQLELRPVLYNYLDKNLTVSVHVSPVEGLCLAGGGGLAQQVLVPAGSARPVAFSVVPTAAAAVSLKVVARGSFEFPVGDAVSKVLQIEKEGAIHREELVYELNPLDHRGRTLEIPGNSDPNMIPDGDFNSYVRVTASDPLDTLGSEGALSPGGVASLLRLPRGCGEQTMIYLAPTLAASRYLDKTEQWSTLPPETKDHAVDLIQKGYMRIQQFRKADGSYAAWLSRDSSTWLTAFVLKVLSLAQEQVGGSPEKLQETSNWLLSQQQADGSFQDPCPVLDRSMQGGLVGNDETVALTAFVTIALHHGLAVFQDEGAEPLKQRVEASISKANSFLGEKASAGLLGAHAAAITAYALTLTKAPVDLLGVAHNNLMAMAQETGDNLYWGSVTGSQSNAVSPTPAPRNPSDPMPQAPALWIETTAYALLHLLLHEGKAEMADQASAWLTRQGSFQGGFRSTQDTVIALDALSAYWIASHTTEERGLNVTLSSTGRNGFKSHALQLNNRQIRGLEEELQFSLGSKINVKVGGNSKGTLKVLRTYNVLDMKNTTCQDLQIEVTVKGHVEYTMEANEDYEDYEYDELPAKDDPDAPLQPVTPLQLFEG

[2] = molecular target: soluble human C3b (human) (UniProt P01024)

CFI-HSA fusion WT; GGSSGG (SEQ ID NO: 6); CR1(ccp15); fH(ccp2); fH(ccp3); fH(ccp4), sequence (P17927 other isoform, or with tags, fused parts or gaps limits assumed): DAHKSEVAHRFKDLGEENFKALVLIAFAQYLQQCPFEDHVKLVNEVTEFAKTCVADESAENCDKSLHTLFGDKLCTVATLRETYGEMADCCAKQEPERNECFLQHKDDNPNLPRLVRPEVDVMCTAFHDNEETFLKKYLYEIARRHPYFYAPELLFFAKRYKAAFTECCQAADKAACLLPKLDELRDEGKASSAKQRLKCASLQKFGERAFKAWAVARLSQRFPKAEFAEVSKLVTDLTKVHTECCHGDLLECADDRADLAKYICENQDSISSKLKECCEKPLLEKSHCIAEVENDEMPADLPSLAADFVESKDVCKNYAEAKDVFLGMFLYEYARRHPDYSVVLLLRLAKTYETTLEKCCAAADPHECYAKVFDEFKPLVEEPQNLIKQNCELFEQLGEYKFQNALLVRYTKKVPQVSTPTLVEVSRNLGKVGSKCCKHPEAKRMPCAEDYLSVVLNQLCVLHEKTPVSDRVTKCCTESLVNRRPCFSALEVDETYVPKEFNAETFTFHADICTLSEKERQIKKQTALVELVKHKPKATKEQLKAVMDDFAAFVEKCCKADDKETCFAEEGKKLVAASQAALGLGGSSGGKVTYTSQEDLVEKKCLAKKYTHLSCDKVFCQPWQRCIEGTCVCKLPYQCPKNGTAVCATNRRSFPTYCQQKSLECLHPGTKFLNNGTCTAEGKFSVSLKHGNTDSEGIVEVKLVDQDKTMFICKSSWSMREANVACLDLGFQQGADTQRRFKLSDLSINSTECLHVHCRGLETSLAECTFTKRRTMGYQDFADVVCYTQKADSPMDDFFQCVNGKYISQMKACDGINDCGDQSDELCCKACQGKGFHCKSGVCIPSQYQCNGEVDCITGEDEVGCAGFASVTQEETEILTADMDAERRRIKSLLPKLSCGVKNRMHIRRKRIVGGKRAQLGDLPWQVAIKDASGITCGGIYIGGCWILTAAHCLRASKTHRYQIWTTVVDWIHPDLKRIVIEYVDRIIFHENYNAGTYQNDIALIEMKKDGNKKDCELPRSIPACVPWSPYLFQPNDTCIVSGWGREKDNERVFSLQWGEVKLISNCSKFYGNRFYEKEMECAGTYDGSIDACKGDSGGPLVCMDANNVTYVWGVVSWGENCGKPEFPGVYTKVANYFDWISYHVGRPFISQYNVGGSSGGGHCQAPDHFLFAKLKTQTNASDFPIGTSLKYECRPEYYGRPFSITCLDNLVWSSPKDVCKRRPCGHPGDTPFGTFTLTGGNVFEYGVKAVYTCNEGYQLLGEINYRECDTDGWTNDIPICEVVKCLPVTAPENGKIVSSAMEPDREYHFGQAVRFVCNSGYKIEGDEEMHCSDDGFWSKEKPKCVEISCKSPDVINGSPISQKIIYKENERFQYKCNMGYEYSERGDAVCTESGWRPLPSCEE

Row | Substance | C4b Screen Ref Fold (fold of CFI-HSA wild type) [1] | iC3b Screen Ref Fold (fold of CFI-HSA wild type) [2] | C4b Screen Ref Fold (fold of reference) [1] | iC3b Screen Ref Fold (fold of reference) [2]
1 | CFI-HSA N531G; E457G; R462K; F464Y (enzyme) | 6.38 | 1.32 |  | 
2 | CFI-HSA N531G; E461Q (enzyme) | 6.13 | 1.45 |  | 
3 | CFI-HSA N531G; E461Q; F464Y (enzyme) | 6.83 | 1.76 |  | 
4 | CFI-HSA N531G; E461Q; R462K (enzyme) | 6.42 | 2.21 |  | 
5 | CFI-HSA N531G; E461Q; R462K; F464Y (enzyme) | 6.37 | 1.54 |  | 
6 | CFI-HSA N531G; F464Y (enzyme) | 6.48 | 1.47 |  | 
7 | CFI-HSA N531G; P535A; S507A (enzyme) | 0.26 | -0.02 |  | 
8 | CFI-HSA N531G; P535A; S507A; GGSSGG (SEQ ID NO: 6); CCP_1-4 (enzyme) | 0.2 | -0.02 |  | 
9 | CFI-HSA N531G; R462K (enzyme) | 6.13 | 1.17 |  | 
10 | CFI-HSA N531G; R462K; F464Y (enzyme) | 6.27 | 0.78 |  | 
11 | CFI-HSA P535D (enzyme) | 0.14 | 0.01 |  | 
12 | CFI-HSA P535E (enzyme) | 0.45 | 0.24 |  | 
13 | CFI-HSA P535F (enzyme) | 0.19 | 0.3 |  | 
14 | CFI-HSA P535H (enzyme) | 0.22 | 0.42 |  | 
15 | CFI-HSA P535I (enzyme) | 0.62 | 0.65 |  | 
16 | CFI-HSA P535L (enzyme) | 0.27 | 0.53 |  | 
17 | CFI-HSA P535M (enzyme) | 0.68 | 0.6 |  | 
18 | CFI-HSA P535N (enzyme) | 0.33 | 0.08 |  | 
19 | CFI-HSA P535Q (enzyme) | 1.24 | 0.37 |  | 
20 | CFI-HSA P535R (enzyme) | 1.24 | 0.77 |  | 
21 | CFI-HSA P535S (enzyme) | 2.14 | 0.58 |  | 
22 | CFI-HSA P535T (enzyme) | 0.4 | 0.17 |  | 

Row | Substance | C4b Screen Ref Fold (fold of CFI-HSA wild type) [1] | iC3b Screen Ref Fold (fold of CFI-HSA wild type) [2] | C4b Screen Ref Fold (fold of reference) [1] | iC3b Screen Ref Fold (fold of reference) [2]
23 | CFI-HSA P535V (enzyme) | 1.29 | 0.57 |  | 
24 | CFI-HSA P535W (enzyme) | 0.14 | 0.29 |  | 
25 | CFI-HSA R462K; F464Y (enzyme) | 0.83 | 0.11 |  | 
26 | CFI-HSA S507A; GGSSGG (SEQ ID NO: 6); CCP_1-4 (enzyme) | 0.43 | 0 |  | 
27 | CFI-HSA T346K; Y408L; K504D; E530K; N531G (enzyme) | 0.04 | 0.29 |  | 
28 | CFI-HSA T346K; Y408L; N531G (enzyme) | 4.81 | 1.1 |  | 
29 | CFI-HSA T346R; Y408L; K504E; E530R; N531G (enzyme) | 0.1 | 0.67 |  | 
30 | CFI-HSA T407G (enzyme) | 0.11 | 0.59 |  | 
31 | CFI-HSA T407G; E457G (enzyme) | 0.42 | 0.89 |  | 
32 | CFI-HSA T407G; N531G (enzyme) | 0.83 | 0.85 |  | 
33 | CFI-HSA T407G; Y408L; E457G (enzyme) | 0.12 | 0.74 |  | 
34 | CFI-HSA T407G; Y408L; E457G; N531G (enzyme) | 0.67 | 0.56 |  | 
35 | CFI-HSA T407G; Y408L; N531G (enzyme) | 0.46 | 1.43 |  | 
36 | CFI-HSA Y408L; E457G; E461Q (enzyme) | 6.36 | 1.18 |  | 
37 | CFI-HSA Y408L; E457G; E461Q; F464Y (enzyme) | 5.88 | 1.45 |  | 
38 | CFI-HSA Y408L; E457G; F464Y (enzyme) | 5.57 | 1.13 |  | 
39 | CFI-HSA Y408L; E457G; R462K (enzyme) | 5.24 | 1.02 |  | 
40 | CFI-HSA Y408L; E457G; R462K; F464Y (enzyme) | 5.5 | 0.89 |  | 
41 | CFI-HSA Y408L; E457G; S507A; N531G (enzyme) | 0.12 | -0.01 |  | 
42 | CFI-HSA Y408L; E461Q (enzyme) | 4.44 | 1.03 |  | 
43 | CFI-HSA Y408L; E461Q; F464Y (enzyme) | 4.83 | 1.51 |  | 
44 | CFI-HSA Y408L; E461Q; R462K (enzyme) | 2.53 | 1.33 |  | 

Row | Substance | C4b Screen Ref Fold (fold of CFI-HSA wild type) [1] | iC3b Screen Ref Fold (fold of CFI-HSA wild type) [2] | C4b Screen Ref Fold (fold of reference) [1] | iC3b Screen Ref Fold (fold of reference) [2]
45 | CFI-HSA Y408L; E461Q; R462K; F464Y (enzyme) | 2.43 | 0.74 |  | 
46 | CFI-HSA Y408L; E530K; N531G (enzyme) | 4.89 | 1.12 |  | 
47 | CFI-HSA Y408L; E530R; N531G (enzyme) | 4.67 | 1.09 |  | 
48 | CFI-HSA Y408L; F464Y (enzyme) | 0.67 | 0.55 |  | 
49 | CFI-HSA Y408L; N531G (enzyme) | 6.44 | 1.29 |  | 
50 | CFI-HSA Y408L; N531G; E457G; E461Q; R462K; F464Y; S507A (enzyme) | 0.04 | -0.01 |  | 
51 | CFI-HSA Y408L; N531G; E457G; F464Y (enzyme) | 6.45 | 0.84 |  | 
52 | CFI-HSA Y408L; N531G; E457G; R462K (enzyme) | 6.12 | 1.29 |  | 
53 | CFI-HSA Y408L; N531G; E461Q; F464Y (enzyme) | 5.6 | 1.29 |  | 
54 | CFI-HSA Y408L; N531G; E461Q; R462K (enzyme) | 6.79 | 1.24 |  | 
55 | CFI-HSA Y408L; N531G; F464Y (enzyme) | 5.93 | 1 |  | 
56 | CFI-HSA Y408L; N531G; R462K (enzyme) | 3.76 | 1.13 |  | 
57 | CFI-HSA Y408L; N531G; R462K; F464Y (enzyme) | 5.72 | 1.19 |  | 
58 | CFI-HSA Y408L; R462K (enzyme) | 0.31 | 0.48 |  | 
59 | CFI-HSA Y408L; R462K; F464Y (enzyme) | 0.27 | 0.19 |  | 
60 | CFI-HSA Y408L; S507A; N531G (enzyme) | 0.12 | -0.01 |  | 
61 | CFI-HSA Y408L; S507A; N531G; GGSSGG (SEQ ID NO: 6); CCP_1-4 (enzyme) | 0.1 | 0.01 |  | 
62 | CFI-HSA fusion WT; GGSSGG (SEQ ID NO: 6); CR1(ccp15); CR1(ccp16); CR1(ccp17); fH(ccp4) (from UniProt P17927) (enzyme) |  |  | 2.57 | 0.01
63 | CFI-HSA fusion WT; GGSSGG (SEQ ID NO: 6); CR1(ccp15); CR1(ccp16); fH(ccp3); fH(ccp4) (from UniProt P17927) (enzyme) |  |  | 0.25 | -0.01
64 | CFI-HSA fusion WT; GGSSGG (SEQ ID NO: 6); CR1(ccp15); fH(ccp2); fH(ccp3); fH(ccp4) (from UniProt P17927) (enzyme) |  |  | 1.44 | -0.01
